# Measured values taken from the supplement of paper PMC9170038.
# Test system: MS2 coat protein
# Test: apparent KD of MS2 coat protein; higher = weaker reporter binding
# Conditions: Eterna round: R107
# Method in brief: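 Designed RNA switches were transcribed on-chip from Illumina sequencing clusters and titrated with SNAP-549-labelled MS2 coat protein in twofold steps from 0.7 or 1.5 nM up to 3 µM. Each step lasted 0.8–1.5 h at first and 10–20 min by the end, in 100 mM Tris-HCl pH 7.5, 80 mM KCl and 4 mM MgCl2, without or with constant ligand. Apparent KD is the median, for each design, of fits to normalised cluster binding curves.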
# [1] = input ligand: theophylline 20 uM
# [2] = input ligand: tryptophan 2.4 mM
# [3] = input ligand: theophylline 2 mM
Sequence,apparent KD of MS2 coat protein (input ligand: arginine 13.2 mM) [nM],apparent KD of MS2 coat protein [1] [nM],apparent KD of MS2 coat protein [2] [nM],apparent KD of MS2 coat protein [3] [nM],apparent KD of MS2 coat protein (input ligand: none) [nM]
AUUAUCAUGGUCAUAUAUAUAUCGUCAGAUACCAGACUAGAUAUAGUCCCUUGGCAGCUGUUACAUGAGGAUCACCCAUGUUAUA [JR_ExcTheophyA_Sub015],43.5,80.1,88.7,–,–
GAACAUGAGGAUCACCCAUGUAAAACAGAUACCAGUGAUAUAAUACACCCUUGGCAGCUGAAGCUGAAUAAUAAUUCCCUCAAGC [Same State Theophylline A GF1],17,20,15,–,–
ACUCGACCAUCAGCCAUUUGUGAAUCACGGCGAGGACCGGUACGGCCGCCACUCGACAUGAGGAUCACCCAUGUAAGACCGGUGU [vmullin3],24,37.8,–,39.6,–
AAUAUUAUGUCGGCCGCCACUUCCCACAAGAGGUGCCUGCACCCACAUGAGGAUCACCCAUGUCGAAGGACCGGGACGCUCAAUU [theeternabot_sameState_MS2_Trp_B_35],20.5,23.6,–,21.6,–
UCGGGCAGAGCGGCCGCCACUGUUUGGCGUGCGGAUGAAGGAACAUGAGGAUCACCCAUGUAGAUUAGGACCGGGCUUGCGGAGA [ddrmullin],8.61,18.1,15.9,15,13.8
UCAUGCAGGUCGGCCGCCACUACACACAUGAGGAUCACCCAUGUAGUUACUGGGUGAAGUGGCAGUAGGACCGGGACCUGCAUAU [Brourdmod08],155,664,559,696,423
AGACAUGAGGAUCACCCAUGUAGUAUGGAUACCAGAUCCAGAUUUAUCCCUUGGCAGCUGUGGUACAGCGUUGCAACGCUCCUAG [Exclusion - Theophylline A (Freestyle 14)],30.4,38.7,31.8,–,–
ACAUGAACAUGAGGAUCACCCAUGUAUGAUACCAGAAAAGAAGAGUUCCCUUGGCAGCGUACAACACAUGAGGAUCACCCAUGUG [kvcmullin],20.3,26.7,26.1,–,–
UGUCUAGUAAUCGAUACCAGCUACAUGAGGAUCACCCAUGUAGUUCGAACGGCCGCAUGUAGCCCUUGGCAGCGAAUAGUUACAU [Onbitelege],14.2,32.8,18.7,–,–
UGACAUGAGGAUCACCCAUGUGUAAGAGAAGGAGCGGCCGGAAGGCCAGGUAGGUCGCUCAGGUAGCGUGAGGAUCACCCGUGUG [big_hook],81.8,130,35.7,97.5,161
AGUGAUGACCGAAGGAGCGCGGGAAACAUGAGGAUCACCCAUGUACUCCUCAGUGUUAUAACGCAGGUAGGUCGCGGUUAUGGCU [X-ArgiB-ms2@26],148,296,279,328,180
GGUGACUGCAUGUGGAAUUAAGGUAGGGAAGGAGCGCGGUAAGACGCAGGUAGGUCGCCCUACAUGAGGAUCACCCAUGUGGUGU [Beenmaer],114,135,36.5,500,121
CACAUGAGGAUCACCCAUGUCUGAACUGAAGGAGCGCUAAACAAGGCAGGUAGGUCGCGGAAUCCUGUGUGCAUAUGCACACGGG [9.W],30.6,27,21.5,26.1,18
AACGCGGUGAUGGUAGCCGGACGCUAGGUACGAGGACCGGUACGGCCGCCACUCGGAGUCCUACGACAUGAGGAUCACCCAUGUA [Same State Trp A GF15],53.9,140,–,145,–
AGUUAAAUAUGUUAAUAACUAUUUACUGAAGGAGCGUGUUUUUACACAGGUAGGUCGCAGUGACAUGAGGAUCACCCAUGUAGUA [JR_SSArginiA_Sub012],31.3,49.7,33.4,43.5,37.5
CGCCGCGCGGGAAGGAGCGCGAUUACAUAACAUGAGGAUCACCCAUGUAAGAAAUUAUUCAUGCAGGUAGGUCGCCCGCGCGGCG [Same State Arginine B GF 5],58.8,28.4,22.8,22.8,22.3
UGAUGGUUCGGAAGGAGCGUGUAAGAACAAGAACAUGAGGAUCACCCAUGUAUUAAUUUAACACAGGUAGGUCGCCGAGUUAUUG [11.I],12.6,22.1,17,28.9,15.9
UUAGUAACGACGGCCGCCACUGAUUUUGGACAUGAGGAUCACCCAUGUAAAGAUCCUAGAAUGGUCAGGACCGGGUCUGAUAAUG [Exclusion Tryptophane B GF4],35,40,64.4,54,35.3

Sequence,apparent KD of MS2 coat protein (input ligand: arginine 13.2 mM) [nM],apparent KD of MS2 coat protein [1] [nM],apparent KD of MS2 coat protein [2] [nM],apparent KD of MS2 coat protein [3] [nM],apparent KD of MS2 coat protein (input ligand: none) [nM]
AAUUAUUACGGAAGGAGCGUCUUUCGGCUCAAACAUGAGGAUCACCCAUGUGAUUUUGAAUGACAGGUAGGUCGCCGAUAUUUGA [JR_AAArginiB_Sub030],24.4,41.5,25.2,32.1,26.4
ACAUGAGGAUCACCCAUGUAUUACCGGGAAGGAGCGCGUAAGGACGCAGGUAGGUCGCUCGGCGUCUGGCCGCAAGGCUGGACGA [#1 Same State - Arginine A Attempt #18 (HarryS)],12.6,21.3,15.9,15.2,15.5
GCAUCCUAGUCGGCCGCCACUGCGGAUCCGGUUCUAGAUCCUUAACAUGAGGAUCACCCAUGUAGCAGGACCGGGACUAGGAUGC [(Trp1)-(TM)''-(TM)'-(Ms2)-(Trp2)_Design2],91,251,295,324,237
UUCGUUUGCGGAAGGAGCGACGGACAUCGGUGAACGACGGACAUGAGGAUCACCCAUGUACGUCAGGUAGGUCGCCGCUAAGAGU [Enbiceri],13.7,13.8,13.8,15.2,13.2
ACAUGAGGAUCACCCAUGUAAUUUACAGAAGGAGCGUGAUGGAUCACAGGUAGGUCGCUGUACUGCGAAAGCACUCUCAUGAAUA [JR_Nu_SSArginiA_Sub025],18.6,25.3,19,19.7,16.8
AAUCAUGGAAACAUGACAUGAGGGUUGCUCCGAGGACCGGUACGGCCGCCACUCGCGAGGAGGCGGACAUGAGGAUCACCCAUGU [#05 Tryptophan A Same State],40.3,280,68.2,328,252
GACGGUACGUCGGCAAAGCCGAUGUGCCAGCGAGGACCGGUACGGCCGCCACUCGUACAUGAGGAUCACCCAUGUCCGGUCCGUC [Omei Trp SS A C v3],51.7,108,129,167,122
AAACAUGAGGAUCACCCAUGUUGAGGAUCACGAGGACCGGUACGGCCGCCACUCGACAUGAGGAUCACCCAUGUGAGGAUCACCC [Same State - Tryptophan A #1],52.5,214,–,337,–
UGAACAUGAGGAUCACCCAUGUAGUCAGAUACCAGACACUGCAUGGUCCCUUGGCAGCUGAAGAGCGUUUGCCAAAUAACGUUCA [Theo A SS t4],52,223,258,–,–
UCGCUCUGGGUGGGAUCCGGAGAUGUGGAAGGAGCGCUGGAAACAGCAGGUAGGUCGCCAACGGACAUGAGGAUCACCCAUGUAC [Same State - Arginine A (Freestyle 18)],64.9,37.4,59,37.7,26.5
AGUCUUAAUGGAAGGAGCGCAGUCAUAACAUGAGGAUCACCCAUGUCGAGGUGAGGGUCAUUGCAGGUAGGUCGCCAUACUAGAA [Same State - Arginine B (Freestyle 1)],131,222,125,186,153
AAACGUUGCUGCGAUACCAGACAUGAGGAUCACCCAUGUACCGAGGUACCCGAAAGGAAUGUCCCUUGGCAGCGCAGCAACGAAA [MAT - Exclusion Theophlline B - Mod of Eli - D24],11.2,15.3,11.7,124,11.7
AAUAACAUGAGGAUCACCCAUGUAAAAGAUACCAGAGUGAUGAUCCUCCCUUGGCAGCUUAACGCUGAUUGGAAACAAUCAGCGA [Mat - Same State Theophlline A - Mod of Eli - D1],34.1,268,67.6,–,–
ACACGGAAUGAUGGAUCACCUCGUGAAUCACGAGGACCGGUACGGCCGCCACUCGAAAACCGUGACCUGUACGAAAAGUGCAGGA,322,232,56.5,250,89.7
AACAGGGCUCGCACGAAGCCCUAAGGUGAUACCAGCACAUGUAAGUGCCCUUGGCAGCACGGUACAUGAGGAUCACCCAUGUAGA [Isleenen],19.7,182,59.4,–,–
CUCUGAGUGAUCGCUCACUCAGAGGCGGAUACCAGCGAGGUCCAUCGCCCUUGGCAGCCGAACAUGAGGAUCACCCAUGUCGGUA [#1 Same State - Theophylline A Attempt #20 (HarryS)],8.77,13.7,8.98,12.9,10.3
AACAUACAUGAGGAUCACCCAUGUCACGAUACCAGAUACAUGAGGAUCCCUUGGCAGCGUCAUGAGGAUCACCCAUGUUGUACAU [Exclusion Theophylline A 2],20.3,22.7,17.7,–,–
GCCAUCGGCGGAAGCCGAUGGUAUACAGAAGGAGCGUAGGAAACUACAGGUAGGUCGCUGGACAUGAGGAUCACCCAUGUAAUAG [#27 Same State - Arginine A],22.2,26.7,21.8,17.5,15.2
